Reference: article PMC10249821

Target: gp41 of HIV-1 IIIB (HIV-1 IIIB) (UniProt P04578)

Substance	IC50 of inhibition of HIV-1 IIIB infection of MT-4 cells (MTT assay of virus-induced cytopathic effect, 5 days post infection)
Enfuvirtide Primary Reference Standard (peptide)	18 nM
biosynthesized enfuvirtide (peptide)	45.3 nM
